Laboratory results: paper PMC8557471

Target: A. thaliana DCL1 DSRM1 (A. thaliana)
Assay: BLI

## A. thaliana HYL1 DSRM2 (domain or fragment)
  fold higher affinity than HYL1 DSRM1 for the same target: 3.4 fold
